# Test results from US20260193623A1 (METAGENOMI, published 2026).
# B1: MG153-4 (enzyme)
# chain: MDTSSLMEQILSKENLNEAYLQVVRNKGAAGVDGMSVEELGPYLSENGENIREQMRTRKYKPQPVRRVEIPKPDGGVRNLGVPTVVDRFVQQAVAQVLSPIFEEQFHDHSYGFRPNRCAQQAVLKALEMMNDGHNWIVDIDLAKFFDTVDHDKLMTIFGRTIKDGDVISLVRKFLVSGVMIDDEYEDTIVGTPQGGNISPLLANIMLNELDKELEARGLDFVRYADDLIIMVGSRQAAERVMKSVTRFIENKLGLKVNAEKSRVDKPKGIKYLGFGFYFDSFAKGYKARPHMKAVEKFKEQMKKLTCRSWGVSNTYKVKKLNQLIRGWINYFKIGSMKNLCRKLDAHIRFRLRMCIWKQWKTPKNREKNLIKLGLPRYAAHGISYAKGYARVCRSWNLHISISKERLAKFGLISMEDYYAERRVTC
# notes: Group II intron class C RT, expressed in HEK293T cells as a Flag-HA-MCP fusion (expected 67.6 kDa including the tag); not shown: N-terminal Flag-HA-MCP tag
# B2: MG153-9 (enzyme)
# chain: MESYLTQDRAEPEAGCGANSVSDTEGDGRTVQHDLVEEVVSWSNLEAALKQVVSNRGAPGVDGMTVDELGPWLETNYSELAEKVRNGRYRPNPVRRKEIPKPNGGVRDLGIPTVVDRLLQQAVSQVLMPIYEPSFSDTSYGFRPGRSAHDAIQKAKEYLSEGFGYVVDLDLARFFDTLNQDYLMNILRERVRDKALLELIKRFLRSGVVLPNGLLRETREGSPQGGPLSPLLSNIYLDRFDKLLESRGLRFVRYADDCLVFVRTPRAGERVRESVTRYLEGTLRLRVNQEKTVVGRADQVKFLGFRLYRQKTVGATVHDSSLARFRKEVRRITKRNRGTSLGSVLTELKTFTRGWVGYFRIGLSKSRAEKLDGWIRQRVRQYIFKQWKTLRNRASQLVSLCPDYLRPRPGFTPYSWVRECRRAAFSRSYWKAVNYPVVKRALSNSYLAGLGLYSLSEQLEKWNKGV
# notes: Group II intron class C RT, expressed in HEK293T cells as a Flag-HA-MCP fusion (expected 72 kDa including the tag); not shown: N-terminal Flag-HA-MCP tag
# Molecular target: the molecule itself
# Assay: anti-HA immunoblot of lysates of transfected HEK293T cells; band at 2x the expected size (homodimer)
# Procedure: FIGS. 35A-35C depict protein expression of MG153 GII derived RTs by immunoblots. Cells were transfected with plasmids containing the candidate RTs and protein expression was evaluated by immunoblot, detecting the HA peptide fused to the N termini of the RTs. All lanes were normalized to total protein concentration. White arrows point to bands at 2× the expected molecular size of the protein, which indicate protein dimers. Lanes not relevant for the described experiment in FIGS. 35A and 35B are covered by white boxes. FIG. 35C: Multiple sequence alignment of GII derived RT. The region shown corresponds to positions 196 through 201 of the alignment. The dimerization motif CAQQ (SEQ ID NO: 2267) is highlighted.
# In order to understand protein expression and stability of the GII RTs in mammalian cells, immunoblots were performed. Briefly, transfected cells were lysed with RIPA lysis buffer supplemented with protease inhibitors (80 μL per well in a 24 well format). The lysate was centrifuged at 14,000 g for 10 min at 4° C. in order to remove insoluble aggregates. Proteins were quantified using BCA. […] Proteins were detected by using a rabbit HA antibody, using an HRP-based detection method. […] The expression of each protein was quantified and cDNA synthesis activity was normalized to total protein expression: seven MG153 RTs outperformed the TGIRT control (FIG. 36).
row,Protein,binding result
1,B1,binds
2,B2,binds
